{
  "source": "patent US10202443",
  "about": "(UNIVERSIT LAVAL, dated 2019)",
  "molecular_target": "T1, TDP-43 1-206 amino acid fragment, containing the RRM1 domain (Homo sapiens (Human), UniProt Q13148 1-206)",
  "T1 construct": "Spotted on membranes for the dot blot; also called amino acids 1-206 of TDP-43",
  "T1 sequence (Q13148 1-206)": "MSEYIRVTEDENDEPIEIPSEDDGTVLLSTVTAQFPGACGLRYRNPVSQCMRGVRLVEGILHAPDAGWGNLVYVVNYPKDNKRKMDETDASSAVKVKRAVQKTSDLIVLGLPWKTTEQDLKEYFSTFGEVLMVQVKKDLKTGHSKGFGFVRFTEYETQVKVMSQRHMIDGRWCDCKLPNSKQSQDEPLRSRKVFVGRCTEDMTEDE",
  "assay": "dot blot, scFv-conditioned medium, anti-myc HRP",
  "description": "Example 6: Anti-TDP-43 Antibodies Having an scFv Format Detect TDP-43 RRM1 Domain Different concentrations of TDP-43 1-206 amino acid fragment, containing the RRM1 domain were loaded onto membranes by dot blot. Membranes were incubated overnight with media from Hek293 cells that had been transfected with pScFv9 expression plasmid containing the nucleic acids encoding E6_VH1Vk9 and E6_VH7Vk9. The myc signal was detected using anti-myc HRP antibody incubation.",
  "data": [
    {"binder": "E6_VH1Vκ9 scFv antibody (scFv, The signal is left out here; Used as conditioned medium or inside transfected cells; also called E6_VH1Vk9; VH1Vk9) scFv: LQESGGGLVQPGGSMKLSCVASGFTSSNYWLNWVRQSPERGLEWVAEIRLKSNNYATNYAESVKGRFTISRDDSKSSVYLQVNNLRAEDTGIYYCTRSTARATPYYFDYWGQGTTVTVSSGGGGSGGGGSGGGGSDIELTQSPSSLAVSAGEKVTMSCKSSQSLLNSRARKNFLTWYQQKPGQSPKLLIYWASTRESGVPDRFTGSGSGTDFTLTISSVQAEDLAVYYCKQSYNLYTFGGGTKLEEQKLISEEDLN", "values": [
      {"measurement": "binding result", "value": "binds"}
    ]},
    {"binder": "E6_VH7Vκ9 scFv antibody (scFv, The signal is left out here; It differs from E6_VH1Vκ9 by one residue (Q instead of E); also called E6_VH7Vk9; VH7Vk9) scFv: LQQSGGGLVQPGGSMKLSCVASGFTSSNYWLNWVRQSPERGLEWVAEIRLKSNNYATNYAESVKGRFTISRDDSKSSVYLQVNNLRAEDTGIYYCTRSTARATPYYFDYWGQGTTVTVSSGGGGSGGGGSGGGGSDIELTQSPSSLAVSAGEKVTMSCKSSQSLLNSRARKNFLTWYQQKPGQSPKLLIYWASTRESGVPDRFTGSGSGTDFTLTISSVQAEDLAVYYCKQSYNLYTFGGGTKLEEQKLISEEDLN", "values": [
      {"measurement": "binding result", "value": "binds"}
    ]}
  ]
}
